Measured values taken from patent US20190367592A1 (AC IMMUNE, published 2019).
Numbering of substitutions follows the chain as printed.

B1: 93A8-D2 (antibody, mouse IgG2a, V domains shown)
VH: EVQLQQSGPVLVKPGASVKMSCKASGYTFTDYYVNWVKQSHGKGLEWIGLINPNNGRTSYNQNFNDKATLTVDKSSSTAFMDLNSLTSEDSAVYYCTREGGTGYWGQGTTLSVSS
VL: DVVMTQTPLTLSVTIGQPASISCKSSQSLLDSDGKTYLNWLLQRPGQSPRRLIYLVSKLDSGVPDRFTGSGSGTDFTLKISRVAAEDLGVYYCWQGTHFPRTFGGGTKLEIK
B2: 83E10-D6 (antibody, V domains shown)
VH: EVQLQQSGAELVRSGASVKLSCTASGFNIKDYYIQWVKQRPEQGLEWIGWIDPENGDTDYAPKFQGKATMTADTSSNTAYLQFSSLTSEDTAVYYCNRGWGYWGQGTTLTVSS
VL: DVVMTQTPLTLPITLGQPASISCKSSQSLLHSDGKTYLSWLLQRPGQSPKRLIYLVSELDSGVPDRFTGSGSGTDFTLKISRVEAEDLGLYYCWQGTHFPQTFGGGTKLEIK
notes: hybridoma supernatant
B3: 71H8-D6 (antibody, V domains shown)
VH: B2 VH
VL: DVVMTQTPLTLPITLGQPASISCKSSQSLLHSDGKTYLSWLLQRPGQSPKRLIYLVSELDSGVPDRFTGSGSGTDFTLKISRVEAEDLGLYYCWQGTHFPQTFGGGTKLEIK
notes: hybridoma supernatant
B4: 125B11-H3 (antibody, mouse IgG2a, V domains shown)
VH: EVKLEESGGGLVQPGGSMKLSCVASRFIFSNYWMNWVRQSPEKGLEWVAQIRLKSDNYATHYAESVKGRFTISRDDSKSSVYLQMNNLRAEDTGIYYCTGGTTYWGQGTTLTVSS
VL: DIVMTQSQKFLSTSVGDRVNITCKASQNVGTAVAWYQQKPGQSPGLLIYSASIRYTGVPDRFTGNGSGTDFTLTISDMQSEDLADYFCQQFRTYPYTFGGGTKLEIK
notes: also called 125B1-H3
B5: 113F5-F7 (antibody, V domains shown)
VH: B4 VH with K19R, R26E, I28T, V37I, D76A, K78N, S79F, T103S
VL: DIVMTQSQKIMSTSVGDRVSITCKASQNVGTAVAWYQQRPGHSPKLLIYSASRRFSGVPDRFTGSGSGTDFTLTIINVQSEDLADYFCQQFSTYPYTFGVGTKLEIK
notes: hybridoma supernatant
B6: hu94B2 HC3 + LC11 (antibody, V domains shown)
VH: EVQLVQSGAEVKKPGASVKVSCKASGYSLTGYTMNWVRQAPGQGLEWIGLISPYNGVTSYNQKFKGRATITVDKSTSTAYLELSSLRSEDTAVYYCARQGAYWGQGTLVTVSS
VL: DVVMTQTPLSLPVTPGQPASISCKSSQSLLDSDGKTYLNWYLQKPGQSPQRLIYLVSKLDSGVPDRFSGSGSGTDFTLKISRVEAEDVGVYYCWQGTHFPWTFGQGTKVEIK
B7: hu94B2 HC1 + LC15 (antibody, V domains shown)
VH: B6 VH with I70L
VL: B6 VL with V2I
B8: hu94B2 HC2 + LC15 (antibody, V domains shown)
VH: B6 VH with A68V, I70L
VL: B6 VL with V2I
B9: hu94B2 HC3 + LC13 (antibody, V domains shown)
VH: B6 VH
VL: B6 VL with V2I, Y41L
B10: hu94B2 HC2 + LC9 (antibody, V domains shown)
VH: B6 VH with A68V, I70L
VL: B6 VL with Y41L
B11: hu94B2 HC2 + LC13 (antibody, V domains shown)
VH: B6 VH with A68V, I70L
VL: B6 VL with V2I, Y41L
B12: hu94B2 HC3 + LC9 (antibody, V domains shown)
VH: B6 VH
VL: B6 VL with Y41L
B13: hu94B2 HC1 + LC11 (antibody, V domains shown)
VH: B6 VH with I70L
VL: B6 VL
B14: hu94B2 HC2 + LC11 (antibody, V domains shown)
VH: B6 VH with A68V, I70L
VL: B6 VL
B15: 22G7-C9 (antibody, V domains shown)
VH: QIQLVQSGPELKKPGETVKISCKASGYTFTDCSIHWVKQAPGEGLKWMGWINTETGEPSYADDFKGRFAFSLETSASTAFLQINNLKSEDTASYFCGTAYYRYDGALDYWGQGTSVTVSS
VL: DIVLTQSPASLAVSLGQRATISCRASQSVSTSSYSYMHWFQQKPGQPPKLLIKYASNLESGVPARFSGSGSGTDFTLNIHPVEEEDTATYYCQHSWELPWTFGGGTKLEIK
notes: hybridoma supernatant
B16: 65B1-A2 (antibody, V domains shown)
VH: QVQLKESGPGLVAPSQSLSITCTISGFSLTTYGVHWVRQPPGKGLEWLVVIWSDGSTTYNSALKSRLSISKDNSKSQVFLKMNSLQTDDTAMYYCARQGGFITTAYYAMDYWGQGTSVTVSS
VL: DIVMSQSPSSLAVSAGEKVTMSCKSSQSLLNSRTRKNYLAWYQQKPGQSPKLLIYWASTRESGVPDRFTGSGSGTDFTLTISSVQAEDLAVYYCKQSYNLYTFGGGTKLEIK
notes: hybridoma supernatant
B17: 126F11-G11 (antibody, mouse IgG2a, V domains shown)
VH: EVQLQQSGAELVRPGASVKLSCTASGFNIKDDYMHWVKQRPEQGLEWIGWIDPENGDTEYASKFQGKATITTDTSSNTAYLQLSSLTSEDTAVYYCLDFAYGYWGQGTTLTVSS
VL: DVLMTQTPLSLPVSLGDQASISCRSSQSIVHSNGNTYLEWYLQKPGQSPKLLIYKVSNRFSGVPDRFSGSGSGTDFTLKISRVEAEDLGVYYCFQGSHVPPAFGGGTKLEIK
B18: 30A1-C9 (antibody, V domains shown)
VH: GVQLQQSGPELVKPGASVKISCKTSGYTFTEYTMHWMKQSHGKSLEWIGGIDPNTGNTNYNQKFKGKATLTVDKSSSTAYMDLRSLTSEDSAVYYFYGSGYWGQGTILTVSS
VL: B17 VL with T7S, Y41F, G96A, P101R, A102T
notes: hybridoma supernatant
B19: 307H3E8 (antibody, V domains shown)
VH: EVKFEESGGGLVQPGGSMKLSCVASGFTFSNYWMNWVRQSPEKGLEWVAQIRLKSDNHATHYAESVKGRFTISRDDSKSTVYLQMNNLGAEDTGIYFCTEGGAYFDYWGQGTTLTVSS
VL: B17 VL with L3V, S28N, I29L, L38F, E39H, Y92V, F94S, G96S, S97T, A102T
B20: 231G3F10 (antibody, V domains shown)
VH: EVRLVESGGGLVQPKGSLKLSCAASGFSFNTYAMNWVRQAPGKGLEWVARIRSKRNNFATYYADSVKDRFTISRDDSKSMLYLQMNNLKTEDTAMYYCVRWGYDDPYAMDYWGQGTSVTVSS
VL: NIMMTQSPSSLAVSAGEKVTMSCKSSQSVLYSSNQKNYLAWYQQKPGQSPKLLIYWASARESGVPDRFTGSGSGTDFTLTISSVQAEDLAVYYCHQYFSSFTFGSGTKLEIK
B21: 52F6-F11 (antibody, V domains shown)
VH: QVQLQQSGTELAKPGASVKLSCKASGYTFTHYWMHWIKQRPGQGLEWIGYIYPTNDYTKYNQNFRDKATLTADESSNSAYMQLNSLTYEDSAVYYCARAGNRVFDFWGQGTTLTVSS
VL: QAVVTQESALTTSPGETVTLTCRSSTGAVTTSNFANWVQEKPDHLFTGLIGGTNNRAPGVPARFSGSLIGDKAALTITGAQTEDEAIYFCALWYSNLWVFGGGTKLTVL
notes: hybridoma supernatant

How the values were obtained:
[1] = biological target: T1, recombinant human Tau monomer, 2N4R isoform (amino acids 2-441) (human, UniProt P10636-8 2-441); assay: SPR, mIgG2a captured, Tau monomer analyte, 1:1 fit
T1 construct: range 2-441; N-terminal His-tag removed with TEV protease; also called monomeric Tau
T1 sequence (P10636 other isoform, or with tags, fused parts or gaps limits assumed): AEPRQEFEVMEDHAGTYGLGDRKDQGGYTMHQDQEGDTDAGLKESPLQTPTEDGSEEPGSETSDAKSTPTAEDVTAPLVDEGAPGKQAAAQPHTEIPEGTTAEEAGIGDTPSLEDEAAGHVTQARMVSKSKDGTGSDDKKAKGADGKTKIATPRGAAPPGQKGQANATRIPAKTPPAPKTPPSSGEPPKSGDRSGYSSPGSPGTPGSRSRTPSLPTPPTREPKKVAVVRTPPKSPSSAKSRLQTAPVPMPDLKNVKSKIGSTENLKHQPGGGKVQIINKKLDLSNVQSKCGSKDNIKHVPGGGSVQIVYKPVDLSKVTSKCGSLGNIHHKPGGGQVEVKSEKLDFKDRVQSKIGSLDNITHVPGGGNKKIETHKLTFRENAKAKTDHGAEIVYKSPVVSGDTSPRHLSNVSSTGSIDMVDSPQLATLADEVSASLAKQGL
From the text: Antibody heavy and light chains were constructed via gene synthesis and subcloning of the resulting DNA into murine IgG2a (heavy chain) and murine kappa (light chain) mammalian expression vectors. Antibodies were expressed in CHO or 293T cells by transient co-transfection of the heavy chain and light chain plasmids and were purified with affinity resin MabSelectSure (GE Healthcare Life Sciences). Purified recombinant antibodies were screened for binding to Tau monomer protein on a Biacore T200 surface plasmon resonance instrument using a mouse IgG capture kit and a Series S CM5 chip. Antibodies in mIgG2a format diluted in 10 mM HEPES pH7.4, 150 mM NaCl, 0.05% Tween 20 (running buffer, HBSP) were captured for 30 or 45 seconds at a concentration of 1 μg/ml (antibodies 26C1, 94B2-C1, 52F6-F11.v1, 52F6-F11.v2, 11E10-B8, 55E7-F11, 125B1-H3, 123E9-A1, 30G1-B2, 66F5-A1, 89F4-A1, 93A8-D2 and 126F11-G11) or for 70 or 150 seconds at a concentration of 0.1 μg/ml (antibodies 19H6-F7, 3A4-H4, 54C1-H11 and 37D3-H9) using a flow rate of 10 μl/min. […] Association and dissociation times were monitored for 180-480 seconds and for 300-600 seconds respectively. Antibody 37D3-H9 was selected for further analysis due to the high affinity (Table 6) and the absence of NXS/T glycosylation motifs in the CDRs.

[2] = biological target: T2, full-length human Tau (flTau) (human, UniProt P10636-8 1-441); assay: SPR, hybridoma Ab on anti-IgG chip, flTau analyte
T2 construct: range 1-441; bought (SignalChem); also called human Tau-441
T2 sequence (P10636 other isoform, or with tags, fused parts or gaps limits assumed): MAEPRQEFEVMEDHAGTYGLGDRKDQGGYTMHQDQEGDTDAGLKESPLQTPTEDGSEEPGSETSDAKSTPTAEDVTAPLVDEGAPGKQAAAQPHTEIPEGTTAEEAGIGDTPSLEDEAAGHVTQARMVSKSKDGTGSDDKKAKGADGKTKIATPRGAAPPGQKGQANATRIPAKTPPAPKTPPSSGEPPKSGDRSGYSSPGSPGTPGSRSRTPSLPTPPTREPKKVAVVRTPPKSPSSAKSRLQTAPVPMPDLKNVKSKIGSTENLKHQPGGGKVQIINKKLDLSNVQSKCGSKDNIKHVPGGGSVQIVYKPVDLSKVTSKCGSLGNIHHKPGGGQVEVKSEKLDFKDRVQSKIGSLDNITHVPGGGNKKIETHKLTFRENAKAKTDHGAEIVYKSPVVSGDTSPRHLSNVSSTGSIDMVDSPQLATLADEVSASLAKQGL
Method: Affinity of non-purified antibodies in serum-free hybridoma supernatants was estimated by surface plasmon resonance using a Biacore T-100 instrument (GE Healthcare, United Kingdom). Antibodies were immobilized onto an anti-IgG biosensor chip, and flTau (SignalChem, Canada) was used as the target analyte. Kinetic analysis was done using a 1:1 Langmuir fit model.
For affinity measurements to flTau, antibodies were measured using SPR on a Biacore instrument, with the KDs determined. Biacore affinity measurements were done by immobilizing antibodies on an anti-IgG chip and using flTau as the target analyte.

[3] = biological target: T1, recombinant human Tau monomer, 2N4R …; assay: SPR screen, hIgG captured, Tau monomer analyte
From the text: Antibody 125B11-H3 was humanized onto VH3 and Vκ1 consensus frameworks. The heavy chain graft included murine residues at position 78 (Kabat numbering system). The Vκ1 graft included murine residues in framework positions 43 and 87. The light chain of 113F5-F7 was also humanized onto the Vκ1 framework, with additional murine residues at framework positions 43 and 87. Humanized variant heavy chains (125B11) and light chains (125B11 and 113F5-F7) were co-transfected in multiple combinations and purified in 96-well format as described above. Humanized variants were then screened for affinity for human Tau monomer using the Biacore human IgG capture kit, a Series S CM5 chip and a Biacore T200 instrument. Antibodies were diluted to 2 μg/ml and captured for 15 seconds at 10 μl/min. Association and dissociation of 0, 100 and 500 nM human Tau monomer in HBSP was monitored for 180s and 300s respectively at a flow rate of 40 μl/min. A 1:1 binding model was applied to the results (Table 9).
Variants hu125B11.v17 (HC3+LC1), hu125B11.v26 (HC4+LC2) and hu125B 11.v28 (HC4+LC4) were selected for high-resolution kinetic analysis based on the affinity screen (Table 10). Antibody 94B2-C1 was humanized onto VH1 and Vx2 frameworks. The heavy chain graft also included murine residues at position 28, 29, 67, 69, 71, and 73 (Kabat numbering system). The Vκ2 graft also included murine residues in framework positions 2, 36, and 46. […] Variant hu94B2.v105 (heavy chain variant 94B2.HCl, light chain variant 94B2.LC13) was selected for detailed SPR characterization (Table 11).

Binder	Kd [2] [nM]	Kd [3] [nM]	further results
B1	4.3	–	Kd [1]: 6 nM; koff [1]: 0.002 s⁻¹; kon [1]: 300000 M⁻¹ s⁻¹
B2	0.4	–	–
B3	0.8	–	–
B4	6	–	Kd [1]: 5 nM; koff [1]: 0.0003 s⁻¹; kon [1]: 50000 M⁻¹ s⁻¹
B5	2.4	–	–
B6	–	69.3	–
B7	–	104	–
B8	–	99.6	–
B9	–	3.8	–
B10	–	5.7	–
B11	–	7.4	–
B12	–	2	–
B13	–	91.5	–
B14	–	89.6	–
B15	36	–	–
B16	0.8	–	–
B17	4.2	–	Kd [1]: 3 nM; koff [1]: 0.004 s⁻¹; kon [1]: 2e+06 M⁻¹ s⁻¹
B18	0.6	–	–
B19	1	–	–
B20	0.2	–	–
B21	8.4	–	–
